What was measured:
FMRP ISO1 [1] = target: T1, FMRP ISO1 (UniProt Q06787 1-632); experiment: fluorescence titration (2AP); 150 mM KCl, 1 uM BSA; Fluorescence: 10 mM cacodylic acid pH 6.5, 150 mM KCl, 1 uM BSA, 200 nM RNA; EMSA: 0.5x TBE native gels at 4 C (5 mM KCl for PSD-95 RNAs), incubation at room te
FMRP ISO1 [2] = target: T1, FMRP ISO1; experiment: EMSA; 200 nM RNA, up to 1:6 RNA:protein; Fluorescence: 10 mM cacodylic acid pH 6.5, 150 mM KCl, 1 uM BSA, 200 nM RNA; EMSA: 0.5x TBE native gels at 4 C (5 mM KCl for PSD-95 RNAs), incubation at room te
FMRP ISO1 [3] = target: T1, FMRP ISO1; experiment: EMSA; 200 nM RNA, up to 1:2; Fluorescence: 10 mM cacodylic acid pH 6.5, 150 mM KCl, 1 uM BSA, 200 nM RNA; EMSA: 0.5x TBE native gels at 4 C (5 mM KCl for PSD-95 RNAs), incubation at room te

GGGAGGGAGGGUGGG (structured_RNA, A4 replaced by 2-aminopurine) [PSD-95 Q2 4-2AP]
Kd (FMRP ISO1 [1]): 195 nM

GGGAAAAGGGAGGGAUGGG (structured_RNA, A11 replaced by 2-aminopurine) [PSD-95 Q11234 11-2AP]
Kd (FMRP ISO1 [1]): 128 nM

UCCCUGAGACCCUUUAACCUGUGA (ssRNA) [miR-125a]
binding result (FMRP ISO1 [2]): no binding

UAGGUAGUUUCAUGUUGUUGGG (ssRNA) [miR-196a-1]
binding result (FMRP ISO1 [3]): no binding

Source: publication PMC6529005, “FMRP - G-quadruplex mRNA - miR-125a interactions: Implications for miR-125a mediated translation regulation of PSD-95 mRNA”
